Experimental data: paper PMC3896602 (mAbs, 2013)

Tests used:
Test in all cases: SPR
[1] = molecular target: IT1-Fc-3B4 scFv-Fc-scFv bispecific molecule (human)
[2] = molecular target: IT1-Fc-A1 scFv-Fc-scFv bispecific molecule (human)
[3] = molecular target: IT1-Fc-E10 scFv-Fc-scFv bispecific molecule (human)
human CXCL13 = human CXCL13 (Homo sapiens, UniProt O43927)

Row | Binder | Kd [1] [nM] | Kd [2] [nM] | Kd [3] [nM] | Kd (human CXCL13) [nM] | koff (human CXCL13) [s⁻¹] | kon (human CXCL13) [M⁻¹ s⁻¹]
1 | human CXCL13 (natural protein) VLEVYYTSLRCRCVQESSVFIPRRFIDRIQILPRGNGCPRKEIIVWKKNKSIVCVDPQAEWIQRMMEVLRKRSSSTLPVPVFKRKIP | 0.8 | 0.01 | 0.067 |  |  | 
2 | anti-CXCL13 3B4 scFv-Fc fusion protein (Fc fusion, human) VH: QVQLVQSGAEVKKPGSSVKVSCKASGGTFSSYAISWVRQAPGQGLEWMGGIIPIFGTANYAQKFQGRVTITADESTSTAYMELSSLRSEDTAVYYCAREPDYYDSSGYYPIDAFDIWGQGTTVTVSS VL: QSALTQPASVSASPGQSITISCTGTSSDVGAYDWVSWYQQHPGKAPKLLIFDVNNRPSGVSHRFSGSKSGNTASLTISGLQAEDEADYYCSSYTRRDTYVFGTGTKVTVL |  |  |  | 0.371 | 0.0121 | 3.24e+07
3 | anti-CXCL13 A01 scFv-Fc fusion protein (Fc fusion, human) VH: QVQLVQSGAEVKKPGSSVKVSCKASGGTFSSYAISWVRQAPGQGLEWMGGIIPIFGTANYAQKFQGRVTITADESTSTAYMELSSLRSEDTAVYYCAREPDYYDSSGYYPIDAFDIWGQGTTVTVSS VL: QSALTQPASVSASPGQSITISCTGTSSDVGAYDWVSWYQQHPGKAPKLLIFDVNNRPSGVSHRFSGSKSGNTASLTISGLQAEDEADYYCASTTLFDTYVFGTGTKVTVL |  |  |  | 0.0298 | 0.0003 | 9.28e+06
4 | anti-CXCL13 H06 scFv-Fc fusion protein (Fc fusion, human) VH: QVQLVQSGAEVKKPGSSVKVSCKASGGTFSSYAISWVRQAPGQGLEWMGGIIPIFGTANYAQKFQGRVTITADESTSTAYMELSSLRSEDTAVYYCAREPDYYDSSGYYPIDAFDIWGQGTTVTVSS VL: QSALTQPASVSASPGQSITISCTGTSSDVGAYDWVSWYQQHPGKAPKLLIFDVNNRPSGVSHRFSGSKSGNTASLTISGLQAEDEADYYCASVVVTDTYVFGTGTKVTVL |  |  |  | 0.0376 | 0.0003 | 7.54e+06
5 | anti-CXCL13 C04 scFv-Fc fusion protein (Fc fusion, human) VH: QVQLVQSGAEVKKPGSSVKVSCKASGGTFSSYAISWVRQAPGQGLEWMGGIIPIFGTANYAQKFQGRVTITADESTSTAYMELSSLRSEDTAVYYCAREPDYYDSSGYYPIDAFDIWGQGTTVTVSS VL: QSALTQPASVSASPGQSITISCTGTSSDVGAYDWVSWYQQHPGKAPKLLIFDVNNRPSGVSHRFSGSKSGNTASLTISGLQAEDEADYYCSSAGIISVYVFGTGTKVTVL |  |  |  | 0.046 | 0.0003 | 6.22e+06
6 | anti-CXCL13 E10 scFv-Fc fusion protein (Fc fusion, human) VH: QVQLVQSGAEVKKPGSSVKVSCKASGGTFSSYAISWVRQAPGQGLEWMGGIIPIFGTANYAQKFQGRVTITADESTSTAYMELSSLRSEDTAVYYCAREPDYYDSSGYYPIDAFDIWGQGTTVTVSS VL: QSALTQPASVSASPGQSITISCTGTSSDVGAYDWVSWYQQHPGKAPKLLIFDVNNRPSGVSHRFSGSKSGNTASLTISGLQAEDEADYYCASATLLDTYVFGTGTKVTVL |  |  |  | 0.0454 | 0.0005 | 9.81e+06
7 | anti-CXCL13 H08 scFv-Fc fusion protein (Fc fusion, human) VH: QVQLVQSGAEVKKPGSSVKVSCKASGGTFSSYAISWVRQAPGQGLEWMGGIIPIFGTANYAQKFQGRVTITADESTSTAYMELSSLRSEDTAVYYCAREPDYYDSSGYYPIDAFDIWGQGTTVTVSS VL: QSALTQPASVSASPGQSITISCTGTSSDVGAYDWVSWYQQHPGKAPKLLIFDVNNRPSGVSHRFSGSKSGNTASLTISGLQAEDEADYYCTSVTVEDTYVFGTGTKVTVL |  |  |  | 0.0199 | 0.0002 | 8.53e+06
8 | anti-CXCL13 C07 scFv-Fc fusion protein (Fc fusion, human) VH: QVQLVQSGAEVKKPGSSVKVSCKASGGTFSSYAISWVRQAPGQGLEWMGGIIPIFGTANYAQKFQGRVTITADESTSTAYMELSSLRSEDTAVYYCAREPDYYDSSGYYPIDAFDIWGQGTTVTVSS VL: QSALTQPASVSASPGQSITISCTGTSSDVGAYDWVSWYQQHPGKAPKLLIFDVNNRPSGVSHRFSGSKSGNTASLTISGLQAEDEADYYCSSPTFTEPYVFGTGTKVTVL |  |  |  | 0.0279 | 0.0002 | 8.03e+06
